Biological target: BTN3A1 full intracellular domain (human)
Assay: ITC; nanoITC; 300 μM BTN2A1 ID271 titrated into a mixture of 60 μM BTN3A1 BFI and 120 μM 4-M-HMBPP; independent fit (NanoAnalyze)

KD with 4-M-HMBPP: 190 µM
N with 4-M-HMBPP: 0.08
dH with 4-M-HMBPP: -23.9 kcal/mol
Substance: BTN2A1 intracellular domain (domain or fragment)

Reference: article PMC10665462
